# pKd: −log10 of the molar value.
# Columns and labels:
# microtubules [1] = biological target: microtubules (UniProt P02550)
# microtubules [2] = biological target: microtubules (UniProt P02550); remark: listed apart in the source
# F-actin = F-actin (UniProt P68135); test: co-sedimentation; YFP fluorescence of pellet and supernatant; increasing F-actin concentrations; 5 mM Tris pH 7.4, 100 mM KCl, 0.04% NaN3, 2 mM MgCl2; 20,000 g, 30 min, 4 °C
# Sequence of microtubules (P02550 whole entry, chain 1 of 2): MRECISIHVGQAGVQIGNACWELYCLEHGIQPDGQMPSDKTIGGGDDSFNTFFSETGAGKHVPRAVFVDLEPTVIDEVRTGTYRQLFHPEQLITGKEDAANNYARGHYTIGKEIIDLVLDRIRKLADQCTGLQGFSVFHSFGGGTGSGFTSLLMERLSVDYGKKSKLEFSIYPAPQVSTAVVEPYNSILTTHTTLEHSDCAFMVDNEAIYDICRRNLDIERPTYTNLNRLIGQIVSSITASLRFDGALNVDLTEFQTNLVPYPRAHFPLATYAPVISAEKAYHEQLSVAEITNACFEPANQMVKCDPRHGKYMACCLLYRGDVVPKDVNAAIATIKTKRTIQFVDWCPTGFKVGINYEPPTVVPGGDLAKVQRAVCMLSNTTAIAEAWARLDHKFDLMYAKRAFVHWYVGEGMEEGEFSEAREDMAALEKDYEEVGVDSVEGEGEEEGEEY
# Sequence of microtubules (P02554 whole entry, chain 2 of 2, further chain): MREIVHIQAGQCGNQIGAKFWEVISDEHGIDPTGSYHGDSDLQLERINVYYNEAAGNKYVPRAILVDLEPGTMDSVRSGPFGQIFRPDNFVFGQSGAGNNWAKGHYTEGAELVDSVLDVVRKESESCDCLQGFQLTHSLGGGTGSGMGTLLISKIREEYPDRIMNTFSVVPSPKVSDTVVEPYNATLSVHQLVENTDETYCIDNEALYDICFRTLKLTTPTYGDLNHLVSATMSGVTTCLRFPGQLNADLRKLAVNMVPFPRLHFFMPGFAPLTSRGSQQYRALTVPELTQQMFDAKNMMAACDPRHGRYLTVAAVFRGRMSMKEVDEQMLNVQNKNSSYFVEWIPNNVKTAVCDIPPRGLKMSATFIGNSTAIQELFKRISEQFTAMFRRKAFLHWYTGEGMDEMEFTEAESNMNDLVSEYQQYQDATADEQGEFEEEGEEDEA
substance,measurement,setting,value
myosin-1D tail (amino acids 717–1113) (domain or fragment),"cold-induced depolymerization assays of microtubules, IC50",microtubules [1],20 nM
same,"inhibition of the cold-induced depolymerization of microtubules, IC50",microtubules [2],15 nM
same,pKd,F-actin,4.92
